In patent US20230330251A1, “METHODS FOR TREATING CANCERS WITH ANTIBODY DRUG CONJUGATES (ADC) THAT BIND TO 191P4D12 PROTEINS” (AGENSYS, INC., priority 2020, published 2023):

How the values were obtained:
[1] = test system: subjects with previously treated locally advanced or metastatic urothelial cancer; assay: EV-301: duration of response (DOR) per RECIST V1.1; type: in vivo, human
Text: Duration of Response (DOR) is defined as the time from the date of the first response CR/PR per RECIST V1.1 (whichever is first recorded) that is subsequently confirmed as assessed by investigator to the date of radiological progression or date of death for subjects who achieved CR or PR. If a subject has not progressed or died, the subject was censored at the date of last radiological assessment or at the date of first CR/PR if no other post-baseline radiological assessment is available after the first CR/PR. The median DOR was estimated using the Kaplan-Meier method and is reported along with the corresponding 95% confidence interval by treatment arm.

[2] = test system: patients with previously treated locally advanced or metastatic urothelial carcinoma (la/mUC) with poor prognostic factors; assay: EV-301 hard-to-treat subgroups: safety and tolerability; type: in vivo, human
Experimental: Subgroup analyses were prespecified for the primary endpoint of OS and secondary endpoints of investigator-assessed progression-free survival (PFS) and overall response rate (ORR) per RECIST v1.1. Kaplan-Meier analyses compared OS and PFS between treatments for selected hard-to-treat subgroups as follows: age ≥65 years, presence of liver metastasis, primary upper tract disease, and checkpoint inhibitor (CPI) nonresponse. ORR and safety were also evaluated within subgroups. The Cox proportional hazards model was used to estimate hazard ratios. The Cochran-Mantel-Haenszel test was used to compare response and disease control rates between groups.

191P4D12 = biological target: T1, 191P4D12 (Homo sapiens, UniProt Q96NY8)
T1 sequence (Q96NY8 32-510): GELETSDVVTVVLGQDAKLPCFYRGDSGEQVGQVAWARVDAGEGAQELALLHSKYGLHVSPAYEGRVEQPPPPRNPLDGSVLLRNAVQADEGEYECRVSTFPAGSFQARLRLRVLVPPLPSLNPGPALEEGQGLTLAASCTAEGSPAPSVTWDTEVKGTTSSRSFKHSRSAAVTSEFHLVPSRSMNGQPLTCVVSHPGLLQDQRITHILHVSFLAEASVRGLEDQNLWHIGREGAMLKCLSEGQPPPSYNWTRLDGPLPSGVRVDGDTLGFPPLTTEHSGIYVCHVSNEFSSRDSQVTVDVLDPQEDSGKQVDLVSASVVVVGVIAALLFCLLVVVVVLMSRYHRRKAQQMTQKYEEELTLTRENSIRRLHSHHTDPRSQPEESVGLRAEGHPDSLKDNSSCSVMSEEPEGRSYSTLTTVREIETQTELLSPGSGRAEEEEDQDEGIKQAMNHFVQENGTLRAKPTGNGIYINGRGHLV
Text: As described above and in U.S. Pat. No. 8,637,642, AGS-22M6E is an ADC derived from a murine hybridoma cell line.

[3] = test system: metastatic urothelial cancer patients; assay: Phase 1 study of EV: clinical activity by dose; type: in vivo, human; conditions: 1.25 mg/kg dose vs lower doses
Experimental: EV will be administered at a dose of 1.25 mg/kg as an intravenous infusion over approximately 30 minutes on Days 1, 8, and 15 of each 28-day cycle. […] A maximum tolerated dose (MTD) was not reached in this study. At the 1 mg/kg dose level, 2 dose- limiting toxicities (DLTs) were observed: Grade 3 proctalgia (later changed to grade 2 by the investigator) thought related to radiation recall and Grade 4 hyperuricemia without clinical sequelae.

[4] = test system: subjects with previously treated locally advanced or metastatic urothelial cancer; conditions: in vivo
Text: The Safety Analysis Set (SAF) will be used for the safety analysis. All subjects who are randomized and received study drug will be included in the SAF. The frequency of AEs and the serious AEs will be summarized by MedDRA system organ class and preferred term. In addition, summary statistics will be provided for the following safety parameters: • Laboratory values • Vital sign measurements • ECOG PS
An AE is any untoward medical occurrence in a subject, temporally associated with the use of a medicinal product, whether or not considered related to the medicinal product. An AE can therefore be any unfavorable and unintended sign (including an abnormal laboratory finding), symptom, or disease (new or exacerbated) temporally associated with the use of a medicinal product.
AEs, including abnormal clinical laboratory values, will be graded using the NCI-CTCAE guidelines (Version 4.03).
The safety analysis set (SAF), which consists of all subjects who received any amount of study drug, will be used for safety analyses.
SAF was used to perform all safety analysis. All treated subjects were analyzed according to the treatment they received.
The number and percentage of AEs by severity were also summarized. All AEs were listed.
A study drug-related TEAE is defined as any TEAE with a causal relationship of YES by the investigator. AEs of interest as classified by customized MedDRA queries and/or standard MedDRA queries were also summarized.

[5] = patients with confirmed complete or partial response
[6] = Aged ≥65 Years, N = 190 EV, 188 SC
[7] = Nonresponsive to Prior PD-1/L1 Inhibitor, N = 202 EV, 202 SC
[8] = Presence of Liver Metastasis, N = 90 EV, 92 SC
[9] = Primary Upper Tract Disease, N = 96 EV, 102 SC

## enfortumab vedotin
[1]; patients who had a complete or partial response
  median duration of response: 7.39 months
[1]; [5]
  Duration of Response (DOR), Events, %: (53.8%)
  Duration of Response, At 6 months: 53.8%
  Duration of Response, At 12 months: 27.7%
  Median of DOR: 7.39 Months
[2]; [6]
  Grade ≥3 TRAE: Anemia, %: 2.6%
  Grade ≥3 TRAE: Decreased neutrophil count, %: 7.4%
  Grade ≥3 TRAE: Decreased white blood cell count, %: 2.1%
  Grade ≥3 TRAE: Fatigue, %: 7.9%
  Grade ≥3 TRAE: Febrile neutropenia, %: 1.1%
  Grade ≥3 TRAE: Maculopapular rash, %: 7.4%
  Grade ≥3 TRAE: Neutropenia, %: 3.7%
[2]; [7]
  Grade ≥3 TRAE: Anemia, %: 3.0%
  Grade ≥3 TRAE: Decreased neutrophil count, %: 5.0%
  Grade ≥3 TRAE: Decreased white blood cell count, %: 1.0%
  Grade ≥3 TRAE: Fatigue, %: 5.0%
  Grade ≥3 TRAE: Febrile neutropenia, %: 1.0%
  Grade ≥3 TRAE: Maculopapular rash, %: 9.4%
  Grade ≥3 TRAE: Neutropenia, %: 4.5%
[2]; [8]
  Grade ≥3 TRAE: Anemia, %: 3.3%
  Grade ≥3 TRAE: Decreased neutrophil count, %: 5.6%
  Grade ≥3 TRAE: Fatigue, %: 5.6%
  Grade ≥3 TRAE: Febrile neutropenia, %: 2.2%
  Grade ≥3 TRAE: Maculopapular rash, %: 8.9%
  Grade ≥3 TRAE: Neutropenia, %: 5.6%
[2]; [9]
  Grade ≥3 TRAE: Anemia, %: 6.3%
  Grade ≥3 TRAE: Decreased neutrophil count, %: 9.4%
  Grade ≥3 TRAE: Decreased white blood cell count, %: 1.0%
  Grade ≥3 TRAE: Fatigue, %: 9.4%
  Grade ≥3 TRAE: Febrile neutropenia, %: 2.1%
  Grade ≥3 TRAE: Maculopapular rash, %: 10.4%
  Grade ≥3 TRAE: Neutropenia, %: 6.3%
[2]; across all four hard-to-treat subgroups
  grade ≥3 treatment-related AEs adjusted for treatment exposure, EV versus SC: less frequently
[2]; patients non-responsive to prior treatment with PD-1/L1 inhibitors
  overall rate of AE's: 97.5%
[2]; patients with liver metastasis
  overall rate of AE's: 97.8%
[2]; patients with primary upper tract disease
  overall rate of AE's: 99.0%
[2]; patients ≥65 years of age
  overall rate of AE's: 97.4%
191P4D12
  comparability between enfortumab vedotin and AGS-22M6E: confirmed
[3]
  clinical activity by dose: highest activity
[4]
  Death, %: (43.9%)
  Drug-Related Serious TEAE, %: (22.6%)
  Drug-Related TEAE Leading to Death, %: (2.4%)
  Drug-Related TEAE Leading to Death, Exclusing Disease Progression, %: (2.4%)
  Drug-Related TEAE Leading to Withdrawal of Treatment, %: (13.5%)
  Drug-Related TEAE with CTCAE Grade >=3, %: (51.4%)
  Drug-Related TEAE, %: (93.9%)
  Serious TEAE, %: (46.6%)
  TEAE Leading to Death, %: (7.1%)
  TEAE Leading to Death, Exclusing Disease Progression, %: (3.7%)
  TEAE Leading to Withdrawal of Treatment, %: (17.2%)
  TEAE Leading to dose interruption, %: (60.8) %
  TEAE Leading to dose reduction, %: (34.1) %
  TEAE with CTCAE Grade >=3, %: (70.9%)
  TEAE, %: (98.0%)
  TEAE: Alopecia, %: (47.0) %
  TEAE: Anemia, %: (19.9) %
  TEAE: Constipation, %: (27.7) %
  TEAE: Decreased appetite, %: (40.9) %
  TEAE: Diarrhea, %: (34.8) %
  TEAE: Dysgeusia, %: (25.0) %
  TEAE: Fatigue, %: (36.1) %
  TEAE: Nausea, %: (30.1) %
  TEAE: Peripheral sensory neuropathy, %: (34.5) %
  TEAE: Pruritis, %: (34.5) %
  TEAE: Pyrexia, %: (22.0) %
  TRAE Leading to dose interruption: Anemia, %: (2.7) %
  TRAE Leading to dose interruption: Asthenia, %: (2.0) %
  TRAE Leading to dose interruption: Diarrhea, %: (2.0) %
  TRAE Leading to dose interruption: Drug eruption, %: (2.4) %
  TRAE Leading to dose interruption: Fatigue, %: (5.4) %
  TRAE Leading to dose interruption: Neuropathy peripheral, %: (3.0) %
  TRAE Leading to dose interruption: Neutropenia, %: (2.0) %
  TRAE Leading to dose interruption: Neutrophil count decreased, %: (5.1) %
  TRAE Leading to dose interruption: Peripheral sensory neuropathy, %: (15.5) %
  TRAE Leading to dose interruption: Rash maculo-papular, %: (4.4) %
  TRAE Leading to dose interruption: Rash, %: (3.4) %
  TRAE Leading to dose reduction: Decreased appetite, %: (3.4) %
  TRAE Leading to dose reduction: Fatigue, %: (2.7) %
  TRAE Leading to dose reduction: Neutropenia, %: (1.7) %
  TRAE Leading to dose reduction: Neutrophil count decreased, %: (2.0) %
  TRAE Leading to dose reduction: Peripheral sensory neuropathy, %: (7.1) %
  TRAE Leading to dose reduction: Rash maculo-papular, %: (4.4) %
  TRAE Leading to dose withdrawal: Peripheral sensory neuropathy, %: (2.4) %
